Changes are numbered by the printed parent chain.
T1: CapR (Vibrio cholerae phage satellite PLE1, UniProt M1R2X8 1-139)
T1 sequence: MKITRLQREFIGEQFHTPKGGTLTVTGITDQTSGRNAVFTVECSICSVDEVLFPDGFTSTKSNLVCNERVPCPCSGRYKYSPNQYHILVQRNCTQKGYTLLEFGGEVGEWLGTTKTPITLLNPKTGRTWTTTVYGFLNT

T2: CapR C43/46/72/74S (4xmut) (Vibrio cholerae phage satellite PLE1, UniProt M1R2X8 1-139, C43S;C46S;C72S;C74S)
T2 sequence: T1 sequence with C43S, C46S, C72S, C74S

B1: probe F (dsDNA)
DNA 1: AATAATCGTTCGCAACAACAAATATTACAAT
DNA 2: ATTGTAATATTTGTTGTTGCGAACGATTATT
B2: probe D (dsDNA)
DNA 1: AATAATCGTTCGCAACAACAAATATTACAATTATTAATGCAAACGACATATTTATTTAAATTA
DNA 2: TAATTTAAATAAATATGTCGTTTGCATTAATAATTGTAATATTTGTTGTTGCGAACGATTATT

Tests used:
[1] = biological target: T1, CapR; assay: EMSA
[2] = biological target: T2, CapR C43/46/72/74S (4xmut); assay: EMSA

| Binder | binding result [1] | binding result [2] |
| --- | --- | --- |
| B1 | binds |  |
| B2 | binds | no binding |

From PMC8096241
